Experimental data as given in US8415393B2, “Anti-bacterial drug targeting of genome maintenance interfaces” (Wisconsin Alumni Research Foundation, priority 2007, dated 2013).
Substitutions are numbered along the chain they refer to. Numbers in names are those of the source. Where no end group is shown, it is not given here. fluorescein = fluorescein moiety attached to the N-terminus of the peptide (N-terminal fluorescein label)

T1: fluorescein-labeled SSB C-terminal peptide, fluorescein-WMDFDDDIPF (E. coli)
T1 construct: also called F-WT; F-SSB-Ct
T1 peptide: fluorescein-WMDFDDDIPF

B1: ExoI Glu318 Ala variant (enzyme)
chain: MMNDGKQQSTFLFHDYETFGTHPALDRPAQFAAIRTDSEFNVIGEPEVFYCKPADDYLPQPGAVLITGITPQEARAKGENEAAFAARIHSLFTVPKTCILGYNNVRFDDEVTRNIFYRNFYDPYAWSWQHDNSRWDLLDVMRACYALRPEGINWPENDDGLPSFRLEHLTKANGIEHSNAHDAMADVYATIAMAKLVKTRQPRLFDYLFTHRNKHKLMALIDVPQMKPLVHVSGMFGAWRGNTSWVAPLAWHPENRNAVIMVDLAGDISPLLELDSDTLRERLYTAKTDLGDNAAVPVKLVHINKCPVLAQANTLRPADADRLGINRQHCLDNLKILRENPQVREKVVAIFAEAEPFTPSDNVDAQLYNGFFSDADRAAMKIVLETEPRNLPALDITFVDKRIEKLLFNYRARNFPGTLDYAEQQRWLEHRRQVFTPEFLQGYADELQMLVQQYADDKEKVALLKALWQYAEEIV
notes: also called E318A; Glu318 variant
B2: ExoI Lys227 Ala variant (enzyme)
chain: B1 chain with K227A, A318E
notes: basic ridge variant; also called K227A; Lys227 variant

Target: T1, fluorescein-labeled SSB C-terminal …
Test: equilibrium fluorescence anisotropy

Row | Binder | fold enhanced binding relative to wild-type ExoI | fold binding defect
1 | B1 | ~2 fold | –
2 | B2 | – | 7 fold
